Data: article PMC3597684
Numbering of substitutions follows the chain as printed.

T1: ParBPput-R194A (ParBPput-G291-R194A) (Pseudomonas putida, UniProt P0A152 1-290, R194A)
T1 sequence: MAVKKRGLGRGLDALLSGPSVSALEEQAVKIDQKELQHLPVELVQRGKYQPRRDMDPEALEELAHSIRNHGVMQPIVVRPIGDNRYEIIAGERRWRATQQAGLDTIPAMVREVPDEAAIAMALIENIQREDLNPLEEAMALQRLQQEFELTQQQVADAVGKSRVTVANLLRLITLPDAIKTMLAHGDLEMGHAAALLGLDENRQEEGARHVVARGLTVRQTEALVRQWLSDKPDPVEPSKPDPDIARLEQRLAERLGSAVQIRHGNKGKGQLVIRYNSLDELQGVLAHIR

T2: SopB (SopB-G324) (plasmid F (Escherichia coli), UniProt P62558 1-323)
T2 sequence: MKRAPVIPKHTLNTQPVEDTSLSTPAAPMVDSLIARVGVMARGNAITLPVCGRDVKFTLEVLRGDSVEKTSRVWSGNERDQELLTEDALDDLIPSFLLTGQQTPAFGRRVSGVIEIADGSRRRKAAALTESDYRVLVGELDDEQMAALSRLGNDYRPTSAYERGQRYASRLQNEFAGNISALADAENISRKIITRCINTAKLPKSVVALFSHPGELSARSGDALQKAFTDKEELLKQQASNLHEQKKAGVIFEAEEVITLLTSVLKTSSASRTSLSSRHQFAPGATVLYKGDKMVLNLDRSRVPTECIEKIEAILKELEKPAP

T3: SopB-R219K (plasmid F (Escherichia coli), UniProt P62558 1-323, R219K)
T3 sequence: T2 sequence with R219K

T4: SopB-R219A (plasmid F (Escherichia coli), UniProt P62558 1-323, R219A)
T4 sequence: T2 sequence with R219A

B1: parS66 (Pput parS; assignment from listing order) (dsDNA)
DNA 1: ATTAGTCTGTTCCACGTGGAACACTCGTAT
DNA 2: ATACGAGTGTTCCACGTGGAACAGACTAAT
B2: sopC2 (dsDNA)
DNA 1: ATTAGTCTGGGACCACGGTCCCACTCGTAT
DNA 2: ATACGAGTGGGACCGTGGTCCCAGACTAAT

Assays:
Assay in all cases: EMSA
[1] = target: T1, ParBPput-R194A (ParBPput-G291-R194A)
SopB (SopB-G324) = target: T2, SopB (SopB-G324)
SopB-R219K = target: T3, SopB-R219K
SopB-R219A = target: T4, SopB-R219A

Binder	binding result [1]	binding result (SopB (SopB-G324))	binding signal (SopB-R219K)	binding signal (SopB-R219A)
B1	no binding	–	–	–
B2	–	binds	~100 fold loss vs wild-type SopB	> 200 fold loss vs wild-type SopB
